Data: patent US20170022268A1 (H LUNDBECK A S, published 2017)
Where no end group is shown, it is not given here. [ ]: non-standard residue; d: D form. pGlu = O=C1CC[C@@H](C(=O)O)N1

B1: monoclonal antibody 5C9 (antibody, V domains shown)
VH: QIQLQQSGPELVKPGAAVKISCKASGYTFTDYYLNWVKQKPGQGLEWIGWIYPGSGNVKYNEKFKGKATLTADTSSNTAHMQLSSLTSEDTAVYFCTREGLIVYWGQGTLVTVSA
VL: DVVLTQTPFTLSVTIGQPASISCKSSQSLLHSNGESYLNWLFQRPGQSPKRLIYAVSKLDSGVPDRFTGSGSGTDFTLKISRVEAEDLGVYYCVQGTHFPFTFGGGTKLEIK
notes: also called LuAb1h
B2: monoclonal antibody 2E4 (antibody, V domains shown)
VH: EVKLEESGGGLVQPGGSMKLSCTASGITLNDAWMTWVRQSPEKGLEWVGEIRNKANNHATNYAESVKGRFSISRDDSKGIVYLQMNSLRAEDTGNYYCTRHSYWGPGTLVTVSA
VL: DILMTQSPSSMSVSLGDTVSITCHASQGIRNNIGWLQEKPGKSFKGLIYHGTKLEDGIPSRFSGSGSGADYSLTISSLESEDVADYYCVQYDQFPYTFGGGTKLEIK
notes: Mouse hybridoma monoclonal antibody directed against murine AβpE3
B3: monoclonal antibody 1G11 (antibody, V domains shown)
VH: EVKLEESGGGLVQPGGSMKLSCTASGLTLSDAWMNWVRQSPEKGLEWVAEIRSKAYKHATYYAESVKGRFTISRDDSKSCIYLQMNTLRAEDTGIYYCTRHGSWGPGTLVTVSA
VL: DILMSQSPSSMSVSLGDRVSITCRASQGISSKMGWLQQKPGKSSKGLIYHGTKLEDGVPSRFSGSGSGAEYSLTISSLESEDFGDYYCVQYAQFPYTFGGGTKLEIK
notes: as for B2

How the values were obtained:
[1] = target: T1, pyroglutamated murine Aβ3-11 with the addition of a C-terminal cysteine residue, pE-FGHDSGFE-C (murine, not fully specified); test: SPR (BIAcore 3000), peptide immobilised on CM5 chip
T1 construct: The range 3-11 counts on Aβ, not on APP; also called murine AβpE3; murine AβpE3-11-C
T1 peptide: [pGlu]FGHDSGFEC
Method: (§1) Affinity measurements using SPR technology: Binding affinity of anti-Aβ antibodies was determined using BIAcore 3000 (Biacore, Upsula, Sweden). Human and murine pyroglutaminyl and unmodified Aβ peptides with a C-terminal Cystein were immobilized on a CM5 chip using the 2-(2-pyridinyldithio) ethaneamine hydrochloride (PDEA) coupling technology (GE healthcare).

[2] = target: T2, pyroglutamated human Aβ3-11 with the addition of a C-terminal cysteine residue, pE-FRHDSGYE-C (human, not fully specified); test: as above
T2 construct: The range 3-11 counts on Aβ, not on APP; also called human AβpE3; human AβpE3-11-C
T2 peptide: [pGlu]FRHDSGYEC
Method: as §1

Binder | binding result [1] | binding result [2]
B1 | no binding | 
B2 |  | no binding
B3 |  | no binding
